This is an account of results in the DeepSol protein solubility set.

This series in a line: soluble on expression in E. coli; label from the status in PepcDB or PDB records.
Turning to “MNVVVERKNVRNVRIQVLADGKVRVVAPPDFDVDSFISKHADWIKKKRAEIESLAEEIKGKERMLLLNGKFYHLVKDSGFEIKEGEEVGVVKYYSLRNLKRNLASILREELKRNVSFYSRLLGINYGRIFIKMQKTKWASCSSKGNLSFNLASLALPEKLREYIVVHELVHLLEPKHSRLFWETVGFYYPEYEEAERELKKYWIFVERNEVWRMLRALK”, the “soluble on expression in E. coli” value is reported as “soluble”. Regarding “MDPLLTVLKERMRACQRRVSDRPRRQVVAIEWIDPPMASGNWIPELIALAGGENMLGTAGKHSPYIEWSTLLAIDPEVILVMPCGFDLERTRQELDQALQTYPQWQQLRALQTGQLYILDGNAYFNRPGPRLVDSLEILVEILHPCPLEHHHHHH”, the “soluble on expression in E. coli” value was “soluble”.

Take “AEASADLRADAMAKDRSEEERTTEAEKNERVQKHLKALTSELANARDESKKTANDMIHAENMRLGRDKYKTLRQIRQGNTKQRIDEFESM”: the “soluble on expression in E. coli” value is “soluble”. To “MARKALIEKAKRTPKFKVRAYTRCVRCGRARSVYRFFGLCRICLRELAHKGQLPGVRKASW” belongs “soluble”.

Take “GPLENWFTEFDIKPLASASIAQVHTARLKDTNQEVVLKVIRPDIRPVIDSDLKLMHRMARIVAGAMPEARRLKPVEVVREYEKTLLDELDLRREAANAIQLRRNFEGSEELYVPEVFPDFS”: the “soluble on expression in E. coli” value was “not soluble”. Turning to “MAHHHHHHMYTHTHTHTHTHTCTHMYLSSTLHRVFSPLVASPPQKEVGSKSNARGGKRVWRKGLASWEPQAGTHAHAHAQTDAEGYLQRTRRKPRPPAHASSLSPPLLLGRSRMGYTRERTNRHFFVSRANAFFSRLPISRIQRALAMEAIKKGSMKPWKHTKEQIIGSPITCNFEYNPRPVRLIGTVMDAHTEETSIKGGLKVYARSEEANMMLWIPAGNPKLKYEVTAAKGSFEHYLDERSKWDEAWLTGRARMK”, the “soluble on expression in E. coli” value is “soluble”. The entry for “MGSDKIHHHHHHAATHAKTTKTVKTTGGAKTKAAKAKAIKSTSTHIKLQGASNARDLGGYVNRHGQKIKAHRLIRANSLSHLTKADQTKLVKTYHVATDVDLRTTTEQKMSPDVHMAGVKLVKANVFKSFGAFPDFSKKGAGAKMMEKTYHDAVTTAQGRKAYKSLFHQLLINPKGKAVLWHCSAGKDRAGMGTALVLSALKFDKKAIAQDYLKSNTYLAQTNKENLQKMEAGWKAQGKEVTPIVVENFRAQNAVKMAYLNTMYKAIDAKYGNMDNFLHKGLGLSNTQLKQLQANYLTSAK” is “not soluble”; for “GPGSMANDYLFTSESVSEGHPDKVADQISDAILDAILAQDKYSRVAAETLCNTGLVVLAGEITTTANIDYIQIARDTIKRIGYDNTDYGIDYRGCAVLVAYDKQSPDIAQGVDRAHDNNLDQGAGDQGLMFGYACDETPELMPLPIHLSHRLVERQANLRRDGRLPWLRPDAKSQVTVRYVDGKPHSIDTVVLSTQHAPEIDLPALREAVIEEVIKPTLPADLIKGDIKFLVNPTGRFVIGGPQGDCGLTGRKIIVDTYGGAAPHGGGAFSGKDPSKVDRSAAYAGRYVAKNIVAAGLASRALIQVSYAIGVAEPTSVMVNTFGTGRVSDETITKLVREHFDLRPKGIIQMLDLLRPIYEKTAAYGHFGREEPEFSWEAADKALALAEAAGVEPAVQVA” it is “soluble”.

Take “MKILALDTSALVAAVAVMEDDRLLAEYMLNHRKTHSQQLVAMIREVLASLELAPKDIDVFAASTGPGSFTGLRIGVTTVKAMAYATGKPVVSVPTLDAIAYNIPMNSFTICPVMDARNNQVYTALYDWDENGQKRITDYMGIPVSELVQLIKDMGKKVIFAGDAAKMHEEYFTQELGDDCKIAPGNLLLQRASSVARLAYLKAMNNELESCFDMVPFYLRKSQAEREYEKKLCKDC”: the “soluble on expression in E. coli” value is recorded as “not soluble”. To “MGSDKIHHHHHHMTEQATTTDELAFTRPYGEQEKQILTAEAVEFLTELVTHFTPQRNKLLAARIQQQQDIDNGTLPDFISETASIRDADWKIRGIPADLEDRRVEITGPVERKMVINALNANVKVFMADFEDSLAPDWNKVIDGQINLRDAVNGTISYTNEAGKIYQLKPNPAVLICRVRGLHLPEKHVTWRGEAIPGSLFDFALYFFHNYQALLAKGSGPYFYLPKTQSWQEAAWWSEVFSYAEDRFNLPRGTIKATLLIETLPAVFQMDEILHALRDHIVGLNCGRWDYIFSYIKTLKNYPDRVLPDRQAVTMDKPFLNAYSRLLIKTCHKRGAFAMGGMAAFIPSKDEEHNNQVLNKVKADKSLEANNGHDGTWIAHPGLADTAMAVFNDILGSRKNQLEVMREQDAPITADQLLAPCDGERTEEGMRANIRVAVQYIEAWISGNGCVPIYGLMEDAATAEISRTSIWQWIHHQKTLSNGKPVTKALFRQMLGEEMKVIASELGEERFSQGRFDDAARLMEQITTSDELIDFLTLPGYRLLA” belongs “not soluble”; to “MGSDKIHHHHHHMMRPALRSTSTPKSPLVTCVSHDLTVSAPQGVFLSGLNTKFRAYVGGFGSGKTYVGCLDLGLFAGQHPKTVQGYFAPTYRDIRDTFWPTVDEAAHSLGFTTKVKSADKEVEFYRGRSYYGTTICRSMDDPGGIVGFKIARALVDEIDILSKDKAQAAWRKIIARMRLVLPGVVNGIGVTTTPEGFRFVYDSFKREPKSNYSMVQASTYENEAFLPPDYISTLLEDYPEELIKAYLMGEFVNLTSGTVYRSYDRLRHRSTQSIQPREPLHIGQDFNVGNMASVVFVQRGEDWHAVDELQGLQDTPHLIEVLCDRYEGHHLTIYPDASGSSRKTVNASTSDIELLRKAGHAIRAPSTNPAVKDRILAVNTAFENGRLFVNALRCKAYAEALEQQAYDKNGEPDKSAGLDHHPDAGGYFVHQKMPVVKPTFTRQELRL”, “not soluble”. To “MGHHHHHHSHPQLLHFVDQYREQLIARVTSVEVVLDKLHGQVLSQEQYERVLAENTRPSQMRKLFSLSQSWDRKCKDGLYQALKETHPHLIMELWEKG” belongs “not soluble”; to “MSEDNFDDEFDGSLPSGPRHPMARRFRGYLPVVVDVETGGFNSATDALLEIAATTVGMDEKGFLFPEHTYFFRIEPFEGANIEPAALEFTGIKLDHPLRMAVQEEAALTEIFRGIRKALKANGCKRAILVGHNSSFDLGFLNAAVARTGIKRNPFHPFSSFDTATLAGLAYGQTVLAKACQAAGMEFDNREAHSARYDTEKTAELFCGIVNRWKEMGGWMDDDD”, “soluble”; to “MGSDKIHHHHHHMGEHFLLEMVDITKEFPGVKALDRVQLKVRKGSVHALMGENGAGKSTLMKILIGMYKPNEGKIIFDGEEVTFNSINDALDKGISMIHQELSPIPEMTVAENIFLGREPTFGKSGLVDNKKLIEMTRNLLESLEINIDPRKKMGELSIANTQMIEIAKAISFHSKLVIMDEPTSAITEKEVAQLFKMIESLKKKGVGIIYITHKMSELDEIADDISVFRDGKYIGTDTAKNLTRDDLIKMMVGRELNQIFDKPEPKLGEVILSVKSLTKQDYFEDVSFEVRKGEIVGFAGLMGSGRTEVLETIFGVKEAESGEIFVNGQKARIKSPQDAVKNNMGFLTEDRKLTGLFLPLSVRENMITVNIDKYINMGWLNGKRVKKDCEQQKQKLYIKTPSIEQIVENLSGGNQQKVLLARWLLKNPDILFLDEPTRGIDVGAKSEFYNLIFELASQGKAIVVVSSEMAEILGLCDRILVMHEGKVTGELTREEANQEKIMQYATGQAKMAKKLHVHNNFEQTVTANKIEIG”, “not soluble”. “MGSDKIHHHHHHMEMRFFVLGAGSWGTVFAQMLHENGEEVILWARRKEIVDLINVSHTSPYVEESKITVRATNDLEEIKKEDILVIAIPVQYIREHLLRLPVKPSMVLNLSKGIEIKTGKRVSEIVEEILGCPYAVLSGPSHAEEVAKKLPTAVTLAGENSKELQKRISTEYFRVYTCEDVVGVEIAGALKNVIAIAAGILDGFGGWDNAKAALETRGIYEIARFGMFFGADQKTFMGLAGIGDLMVTCNSRYSRNRRFGELIARGFNPLKLLESSNQVVEGAFTVKAVMKIAKENKIDMPISEEVYRVVYEGKPPLQSMRDLMRRSLKDEFWAS”: the “soluble on expression in E. coli” value is “soluble”. As to “MGHHHHHHENLYFQSHLYFQSHINEQEREIEKLKRQMAEYGAIIKSLQFRQNSLEDTFIPDLTPKVEPSVNPTGCLLGSNAVHLMRDIKKECDYLGIPDPVPATKPTTQAQDDSQKKAKRSCFGRLFTGPFRRGTSAMKTADEYEKDDRLEELYAQLERDPDP”, the “soluble on expression in E. coli” value is given as “not soluble”. The entry for “KPYVSEDSRVYSPQEPTLVVKSVDNSVSIDVTSKYNVNLYRNGELIQKNVIAQSYSDTPTGFACYLAESINDKGFRSNPSQPVCVGEEIRIKLDGEYQPLKDNVSVVTVSKDSGIVKGAESFTAPVTGTYQFDAWYNNNLGQLNTGITNTVKLLEVLDDAGKVVGQGYLQMGHIGENQGMRYSTPIEVALEQGKTYQFALKDHFNMSYLTSNETYIYAGGIEGEKNEAQIADIRITPLM” is “not soluble”; for “SKVWKYFGFDTNAEGCILQWKKIYCRICMAQIAYSGNTSNLSYHLEKNHPEEFCEFVKSN” it is “soluble”; for “MKLIFLSGVKRSGKDTTADFIMSNYSAVKYQLAGPIKDALAYAWGVFAANTDYPCLTRKEFEGIDYDRETNLNLTKLEVITIMEQAFCYLNGKSPIKGVFVFDDEGKESVNFVAFNKITDVINNIEDQWSVRRLMQALGTDLIVNNFDRMYWVKLFALDYLDKFNSGYDYYIVPDTRQDHEMDAARAMGATVIHVVRPGQKSNDTHITEAGLPIRDGDLVITNDGSLEELFSKIKNTLKVL” it is “soluble”. In the case of “MSHHHHHHAGIFTFEEPVTHVSESIGIMEVKVLRTSGARGNVIVPYKTIEGTARGGGEDFEDTCGELEFQNDEIVKTISVKVIDDEEYEKNKTFFLEIGEPRLVEMSEKKGGFTITEEYDDKQPLTSKEEEERRIAEMGRPILGEHTKLEVIIEESYEFKSTVD”, the “soluble on expression in E. coli” value was “soluble”.

In the case of “GPGSMCVCASDCVTPMKRDTKGKLSYDMEPAEHRLSSSRSSSCNVVMTAADELAMQINDCRSLFPCIDAGSAVASIRPTSPSGRTVVARVPWTKSTGTTQTPAPEPTRCAVEVRFGYAEGFVCDEKVYEALLPLLLENGLQGAACVVDSDVSDS”, the “soluble on expression in E. coli” value is given as “not soluble”. Take “MSTDPEEFDQAETLDQLAYEIILLTRYGVQNTPTNKREAIMDRSALILLTRLDAQGPMTVNELAESFGLNVSTVHRQLKAAIANGLIEVVDDQACPAKLHRPTELGKEKLQQELLARQQDLTRILHDWDEEDIKTHAKLLRKHNESLEEYLDMKWPRP”: the “soluble on expression in E. coli” value is “not soluble”. As to “MPAHRSDPTSSVIELNDVVFCWPGASSPTLDIAHLQIARGEHLFVKGPSGCGKSTLLSLLTGINTATQGVVSLLGSDLSRLSASQRDRFRADHIGYIFQQFNLLPYLSVLDNVTLPCHFSALRKQQVDGPLSHKAQSLLERLHLPSALLNKPVTELSIGQQQRVAAARALMGEPQLIIADEPTSALDYDNREAFIALLREEAERVGSTLVFVSHDPTLEKLFERSVHLPTLNRAGGWQ”, the “soluble on expression in E. coli” value is “not soluble”. The entry for “MLGRALRPGWLGITRTVVKKPSCGSYFNRTFQTAINTTMPPMQEGMLSTMMMMTATATRITGTVSEPLNGSNIVMQLDSVMRKRKKKMKKHKLRKRRKREKAERRKLSQGR” is “soluble”.

“MLKLASSLRTGLISRSIRTLAPTVNPAEQQQVQAVLPDKLYSSVEIEYRGHDKAVLKSYTSFLQQVCQHLEIPQGRLEVLPYIRWVQPALRSKFVHKKYKLHYETRTHISKLEILNVTGSTASTFLEYIQRNIPEGVGMRVGFTELQPLPLTIQKN”: the “soluble on expression in E. coli” value is recorded as “not soluble”.
